The source of these data is publication PMC9147068, “The Response Regulator RegA Is a Copper Binding Protein That Covalently Dimerizes When Exposed to Oxygen” (Microorganisms, 2022).

As a reminder, the Kd is a measure of binding affinity in units of concentration. Higher therefore signals lower affinity. By stoichiometry N is commonly meant a count of units in the complex or per binding partner.

Data set [1] deals with RegA, Cu2+-stimulated disulfide-linked dimer (unphosphorylated) (Rhodobacter capsulatus). Description: DNase I footprinting. As to conditions: 20 mM Tris-HCl pH 8.0, 2 mM MgCl2, 0.5 mM CaCl2, 0.1 mg/mL BSA, 50 nM DNA probe, 20 uL, 15 min at room temperature.
Data set [2] deals with the molecule itself. Description: non-reducing SDS-PAGE; monomeric RegA loaded with Cu2+ by buffer exchange aerobically (20 mM Tris-HCl pH 8.0, 250 mM NaCl), run at once on a non-reducing gel without DTT; time course in air from one minute.

On to ccoN promoter fragment (299 bp), for which the Kd in data set [1] was determined as 1000 nM.

B1: RegA (response regulator RegA of Rhodobacter capsulatus), wild type, tagless (natural protein, UniProt P42508 1-184, looked up)
chain: MAEEEFAELGSDRSLLLVDDDNAFLTRLARAMEKRGFQTEIAETVSAGKAIVQNRAPAYAVIDLRLEDGNGLEVVEALRERRPEARIVVLTGYGAIATAVAAVKMGATDYLSKPADANDITNALLAKGEALPPPPENPMSADRVRWEHIQRVYELCDRNVSETARRLNMHRRTLQRILAKRSPR
notes: RegA, response regulator of the RegB/RegA two-component system, Rhodobacter capsulatus; wild-type codon at residue 95 (made from the RegA* overexpression vector of Du et al. 1998); a single cysteine, Cys156, in the tryptic peptide VYELCDR; The dimer formed with Cu2+ and O2 is joined by an intermolecular disulfide bond between Cys156 of two chains; also called apo-RegA; RegA monomer
With B1, in data set [2], the “stoichiometry N” value turned out to be 2.
